Test [1] has as its target CTLA-4 on PATHHUNTER CTLA4 Jurkat cells, P16410. Briefly: cell-based or functional assay.
Test [2] addresses PD-1 on PATHHUNTER PD-1 Jurkat cells, Q15116. Briefly: cell-based or functional assay.

Sequence of CTLA-4 on PATHHUNTER CTLA4 Jurkat cells, P16410 (P16410 36-223 limits assumed): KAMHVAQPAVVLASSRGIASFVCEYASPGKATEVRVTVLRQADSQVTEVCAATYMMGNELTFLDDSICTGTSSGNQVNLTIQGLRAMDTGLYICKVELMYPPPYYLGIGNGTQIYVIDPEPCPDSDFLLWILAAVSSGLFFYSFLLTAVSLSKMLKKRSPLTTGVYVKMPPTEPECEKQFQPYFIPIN
Sequence of PD-1 on PATHHUNTER PD-1 Jurkat cells, Q15116 (Q15116 25-288 limits assumed): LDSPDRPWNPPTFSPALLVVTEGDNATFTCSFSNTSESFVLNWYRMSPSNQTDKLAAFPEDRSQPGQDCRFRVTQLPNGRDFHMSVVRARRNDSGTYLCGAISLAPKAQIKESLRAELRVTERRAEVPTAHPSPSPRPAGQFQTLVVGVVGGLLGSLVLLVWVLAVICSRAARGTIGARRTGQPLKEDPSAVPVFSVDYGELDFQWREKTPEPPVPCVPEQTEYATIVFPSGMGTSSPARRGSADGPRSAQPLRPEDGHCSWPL

In test [1], CRRTSTGQISTLRVNITAPLSQ (modifications not checked) [peptide LD01] came in with a % inhibition (PATHHUNTER CTLA4 assay; 100 µM; Study 2) of 51%, a % inhibition (PATHHUNTER CTLA4 assay; 100 µM; Study 4) of 16% and a % inhibition (PATHHUNTER CTLA4 assay; 100 µM; Study 6) of 46%. In test [2], this molecule had a % inhibition (PATHHUNTER PD-1 assay; 100 µM; Study 1) of 50.5%, a % inhibition (PATHHUNTER PD-1 assay; 100 µM; Study 2) of 79%, a % inhibition (PATHHUNTER PD-1 assay; 100 µM; Study 4) of 65% and a % inhibition (PATHHUNTER PD-1 assay; 100 µM; Study 5) of 24%. Moreover, the % inhibition (PATHHUNTER PD-1 assay; 100 µM; Study 6) in test [2] was determined as 83%.

For the origin of these results see patent publication US20210275669A1.
